Experiments:
FcγRIIIA_158F ECD = FcγRIIIA_158F ECD (human, UniProt P08637); assay: SPR, 25C
[1] = biological target: T1, cynomolgus CD200RLa (activating form) (cynomolgus monkey); assay: SPR, 37C
T1 chain: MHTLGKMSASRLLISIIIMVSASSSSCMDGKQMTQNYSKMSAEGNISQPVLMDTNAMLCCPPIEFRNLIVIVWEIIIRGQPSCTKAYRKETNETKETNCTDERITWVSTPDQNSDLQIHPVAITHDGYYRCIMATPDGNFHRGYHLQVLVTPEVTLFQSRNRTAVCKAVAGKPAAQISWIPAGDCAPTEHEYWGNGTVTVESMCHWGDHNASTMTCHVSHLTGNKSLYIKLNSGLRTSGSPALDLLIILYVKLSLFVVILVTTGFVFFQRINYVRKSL

mouse CD200R = biological target: T2, mouse CD200R (mouse, UniProt Q9ES57); assay: SPR, 37C
T2 chain: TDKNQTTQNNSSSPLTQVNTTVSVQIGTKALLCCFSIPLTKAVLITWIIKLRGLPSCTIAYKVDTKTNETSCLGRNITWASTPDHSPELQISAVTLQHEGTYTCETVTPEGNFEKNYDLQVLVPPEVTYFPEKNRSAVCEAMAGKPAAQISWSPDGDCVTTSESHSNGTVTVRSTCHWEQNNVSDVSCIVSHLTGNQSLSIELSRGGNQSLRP

[2] = biological target: T1, cynomolgus CD200RLa (activating form); assay: FACS

Chain of FcγRIIIA_158F ECD (P08637 17-208): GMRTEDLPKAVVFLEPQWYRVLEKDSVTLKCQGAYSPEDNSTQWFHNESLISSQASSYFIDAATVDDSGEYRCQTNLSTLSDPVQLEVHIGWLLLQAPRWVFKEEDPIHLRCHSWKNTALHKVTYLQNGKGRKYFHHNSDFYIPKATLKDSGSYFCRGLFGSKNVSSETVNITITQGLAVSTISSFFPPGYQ

B1: Antibody I-4P (antibody)
chain 1: not shown
chain 2: EIVLTQSPDFQSVTPKEKVTITCQASESIDSYLLWYQQKPDQSPKLLIKQASTLASGVPSRFSGSGSGTDFTLTINSLEAEDAATYYCQNYYDISSNDFGGGTKVEIKRTVAAPSVFIFPPSDEQLKSGTASVVCLLNNFYPREAKVQWKVDNALQSGNSQESVTEQDSKDSTYSLSSTLTLSKADYEKHKVYACEVTHQGLSSPVTKSFNRGEC
modifications: listing feature
Question: B1 was tested. Which Kd (FcγRIIIA_158F ECD) did it give?
Answer: Its Kd is over 10 µM.

Question: What about the Kd [1] of the same binder?
Answer: Its Kd is 2.5 µM.

Question: And the Kd (mouse CD200R)?
Answer: Its Kd is over 10 µM.

Question: Does B1 bind [2]?
Answer: Result: no binding

From patent publication US20200087395 (published 2020)
